In patent US20040038869A1 (published 2004):

Molecular target: Human factor D (human, UniProt P00746 26-253)
Test: cell-based or functional assay

Human factor D, sequence (P00746 26-253 limits assumed): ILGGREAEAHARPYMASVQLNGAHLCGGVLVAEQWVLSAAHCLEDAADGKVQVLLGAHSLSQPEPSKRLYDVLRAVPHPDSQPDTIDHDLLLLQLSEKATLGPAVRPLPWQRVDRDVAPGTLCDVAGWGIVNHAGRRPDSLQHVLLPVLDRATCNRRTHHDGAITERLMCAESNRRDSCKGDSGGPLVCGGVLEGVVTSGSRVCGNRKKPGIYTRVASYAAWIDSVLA

B1: Recombinant polypeptide from Example 6 (Placobdella papillifera alternative complement pathway inhibitor, mature polypeptide of SEQ ID NO: 16) (other)
chain: VEFQDCKKSSDCETLELRCNKNTSKCECRNQVCPRACPDGKYKLDEYGCKRCLCQGCNEAQCRKLCWYGFTTDENGCESYCKCNTKETACKNVLCSDSYQCDPESGNCVAVIPGKEHDYYSYNDDDDEDK
modifications: No modification is reported for the recombinant product. paragraph 50 mentions only in general a possible N-glycosylation at Asn22 and sulphation or phosphation of Tyr119, Tyr120 and Tyr122. Disulphide bonds between cysteines are likely but not mapped.
  IC50 of inhibition of CVF-induced C3a generation in human serum (C3a ELISA): 0.138 µg/mL
